{
  "source": "patent US20140294977A1",
  "about": "“Radiation-Sterilized Biodegradable Drug Delivery Composition” (DURECT CORPORATION, priority 2011, published 2014)",
  "test": "Gamma-radiation stability of hGH:protamine powders and SAIB/BB/PLA suspensions by RPLC",
  "assay_type": "physicochemical",
  "settings": "after gamma irradiation at 15 kGy",
  "description": "Aliquots of 3 mL each of the bulk hGH solution in buffer from BresaGen were transferred into 5 mL type-Hypak BD glass syringes and lyophilized using the lyophilization cycle provided in Table 1 (optimized for hGH) to fit the steps provided with an FTS lyophilizer, Dura Stop, MP Stoppering Tray Dryer, Stone Ridge, N.Y.\n100 mg of BresaGen hGH powder was placed in a 15 mL wide-mouth glass jar. 5.5 mL of 25 mM NH4HCO3 (pH ˜7.5) solution was added and the compound was stirred for 30 min at room temperature, 400 rpm until it became clear. Then 1.02 mL of protamine sulfate solution (conc. 10 mg/mL) was slowly added to form a white precipitate. The resulting suspension was stirred for 30 min to complete the complexation reaction. 0.19 mL of 290 mM sucrose solution was then added while stirring at 400 rpm. When the solution was clear, 15.2 μL of 10% polysorbate 20 solution was added. In powders with methonine formulation, 1 wt %-35 wt % of methionine relative to the total protein weight was added to the complexed suspension. […]\nStability of the above formulations was determined using RPLC analysis. […]",
  "data": [
    {"substance": "control hGH powder: lyophilized human growth hormone powder (BresaGen) without complex, used as control", "values": [
      {"measurement": "purity of hGH / impurity peaks in RPLC spectra (FIG. 1)", "value": "showed an impurity peak around 8.15 min"}
    ]}
  ]
}
